Values joined by “and” are separate entries in the source; they are usually repeats but may differ in a detail not shown here. Equal entries are not always repeated.

Data set [1] has as its target cytochrome c. Put plainly: cell-based or functional assay.
The target of data set [2] is CYP52A5A, omega-hydroxylating cytochrome P450 of Candida tropicalis (Candida tropicalis). The data set is described as follows: cell-based or functional assay.
Data set [3] addresses CYP52A5A, omega-hydroxylating cytochrome P450 of Candida tropicalis.
The target in data set [4] is cytochrome c.

Turning to “truncated (soluble) CPRA from Candida tropicalis, produced in Sf9 insect cells (from UniProt P37201 33-680) (enzyme)”, in the data set with cytochrome c [1], the Sp. Act. (reduction of cytochrome c), soluble fraction of Sf9 cells expressing truncated (soluble) CPRA is 8.42 µmol/min/mg and 4.4 µmol/min/mg; the specific activity (reduction of cytochrome c) relative to microsomes of cells expressing the unmodified CPR was determined as 20 fold. Besides, in data set [2], the Enhancement (%) of hydroxylation of C14 myristic acid, 4 µl sCPR added was determined as 2.4%; the Enhancement (%) of hydroxylation of C14 myristic acid, 8 µl sCPR added stood at 3.4%; the Enhancement (%) of hydroxylation of C14 myristic acid, 16 µl sCPR added was 3.4%; the Enhancement (%) of hydroxylation of C14 myristic acid, 32 µl sCPR added is 8.1%. Moreover, in data set [2], the Enhancement (%) of hydroxylation of C14 myristic acid, 64 µl sCPR added was found to be 6.9%; the enhancement of formation of omega-hydroxylauric acid by CYP52A5A on addition of soluble CPR (TLC autoradiogram) was 4.4 fold; the increase of omega-hydroxylauric acid formation on addition of soluble CPR in the presence of membrane associated CPR amounted to 6%; the omega-hydroxylauric acid (nmol), CYP52A5A microsomes with soluble CPR added is 0.07 nmol. The omega-hydroxylauric acid (nmol), CYP52A5A/CPRA microsomes with soluble CPR added in data set [2] is 0.115 nmol.

B1: truncated (soluble) CPRA from Candida tropicalis, produced in Sf9 insect cells (protein)
chain: MDTGFLNTDSGSNSRDVLLTLKKNNKNTLLLFGSQTGTAEDYANKLSRELHSRFGLKTMVADFADYDWDNFGDITEDILVFFIVATYGEGEPTDNADEFHTWLTEEADTLSTLKYTVFGLGNSTYEFFNAIGRKFDRLLSEKGGDRFAEYAEGDDGTGTLDEDFMAWKDNVFDALKNDLNFEEKELKYEPNVKLTERDDLSAADSQVSLGEPNKKYINSEGIDLTKGPFDHTHPYLARITETRELFSSKDRHCIHVEFDISESNLKYTTGDHLAIWPSNSDENIKQFAKCFGLEDKLDTVIELKALDSTYTIPFPTPITYGAVIRHHLEISGPVSRQFFLSIAGFAPDEETKKAFTRLGGDKQEFAAKVTRRKFNIADALLYSSNNAPWSDVPFEFLIENVPHLTPRYYSISSSSLSEKQLINVTAVVEAEEEADGRPVTGVVTNLLKNVEIVQNKTGEKPLVHYDLSGPRGKFNKFKLPVHVRRSNFKLPKNSTTPVILIGPGTGVAPLRGFVRERVQQVKNGVNVGKTLLFYGCRNSNEDFLYKQEWAEYASVLGENFEMFNAFSRQDPSKKVYVQDKILENSQLVHELLTEGAIIYVCGDASRMARDVQTTISKIVAKSREISEDKAAELVKSWKVQNRYQEDVW
In data set [3], B1 came in with a Conversion (%) of C14 myristic acid, 4 µl sCPR added to CYP52A5A microsomes of 12.4%; a Conversion (%) of C14 myristic acid, 8 µl sCPR added to CYP52A5A microsomes of 13.4%; a Conversion (%) of C14 myristic acid, 16 µl sCPR added to CYP52A5A microsomes of 13.4%; a Conversion (%) of C14 myristic acid, 32 µl sCPR added to CYP52A5A microsomes of 18.1%. In addition, in data set [3], the Conversion (%) of C14 myristic acid, 64 µl sCPR added to CYP52A5A microsomes was determined as 16.9%; the “hydroxylation activity on addition of soluble CPR” value was “increased the hydroxylation activity approximately 5-fold”; the net counts in product (omega-hydroxylation of [14C]-lauric acid), CYP52A5A microsomes with soluble CPR added amounted to 7930 net counts; the net counts in product (omega-hydroxylation of [14C]-lauric acid), CYP52A5A/CPRA microsomes with soluble CPR added worked out at 13200 net counts.

B2: full-length, membrane associated CPRA (NADPH-cytochrome P450 reductase) from Candida tropicalis (protein)
chain: MALDKLDLYVIITLVVAVAAYFAKNQFLDQPQDTGFLNTDSGSNSRDVLLTLKKNNKNTLLLFGSQTGTAEDYANKLSRELHSRFGLKTMVADFADYDWDNFGDITEDILVFFIVATYGEGEPTDNADEFHTWLTEEADTLSTLKYTVFGLGNSTYEFFNAIGRKFDRLLSEKGGDRFAEYAEGDDGTGTLDEDFMAWKDNVFDALKNDLNFEEKELKYEPNVKLTERDDLSAADSQVSLGEPNKKYINSEGIDLTKGPFDHTHPYLARITETRELFSSKDRHCIHVEFDISESNLKYTTGDHLAIWPSNSDENIKQFAKCFGLEDKLDTVIELKALDSTYTIPFPTPITYGAVIRHHLEISGPVSRQFFLSIAGFAPDEETKKAFTRLGGDKQEFAAKVTRRKFNIADALLYSSNNAPWSDVPFEFLIENVPHLTPRYYSISSSSLSEKQLINVTAVVEAEEEADGRPVTGVVTNLLKNVEIVQNKTGEKPLVHYDLSGPRGKFNKFKLPVHVRRSNFKLPKNSTTPVILIGPGTGVAPLRGFVRERVQQVKNGVNVGKTLLFYGCRNSNEDFLYKQEWAEYASVLGENFEMFNAFSRQDPSKKVYVQDKILENSQLVHELLTEGAIIYVCGDASRMARDVQTTISKIVAKSREISEDKAAELVKSWKVQNRYQEDVW
Turning to B2, the net counts in product (omega-hydroxylation of [14C]-lauric acid), CYP52A5A/CPRA microsomes without soluble CPR in data set [3] came out at 12400 net counts.

B3: polyhistidine tagged soluble CPRA from Candida tropicalis, produced in E. coli (pET15b) (protein)
chain: MHHHHHHSSGLVPRGSHMDTGFLNTDSGSNSRDVLLTLKKNNKNTLLLFGSQTGTAEDYANKLSRELHSRFGLKTMVADFADYDWDNFGDITEDILVFFIVATYGEGEPTDNADEFHTWLTEEADTLSTLKYTVFGLGNSTYEFFNAIGRKFDRLLSEKGGDRFAEYAEGDDGTGTLDEDFMAWKDNVFDALKNDLNFEEKELKYEPNVKLTERDDLSAADSQVSLGEPNKKYINSEGIDLTKGPFDHTHPYLARITETRELFSSKDRHCIHVEFDISESNLKYTTGDHLAIWPSNSDENIKQFAKCFGLEDKLDTVIELKALDSTYTIPFPTPITYGAVIRHHLEISGPVSRQFFLSIAGFAPDEETKKAFTRLGGDKQEFAAKVTRRKFNIADALLYSSNNAPWSDVPFEFLIENVPHLTPRYYSISSSSLSEKQLINVTAVVEAEEEADGRPVTGVVTNLLKNVEIVQNKTGEKPLVHYDLSGPRGKFNKFKLPVHVRRSNFKLPKNSTTPVILIGPGTGVAPLRGFVRERVQQVKNGVNVGKTLLFYGCRNSNEDFLYKQEWAEYASVLGENFEMFNAFSRQDPSKKVYVQDKILENSQLVHELLTEGAIIYVCGDASRMARDVQTTISKIVAKSREISEDKAAELVKSWKVQNRYQEDVW
In the data set with cytochrome c [4], B3 showed a Sp. Act. (reduction of cytochrome c), E. coli extract of 5.3 µmol/min/mg and a Sp. Act. (reduction of cytochrome c), concentrated & dialyzed purified protein of 420 µmol/min/mg.

B4: soluble CPRA from Candida tropicalis produced in E. coli (pProEX-1), his-tag removed with TEV protease (protein)
chain: DTGFLNTDSGSNSRDVLLTLKKNNKNTLLLFGSQTGTAEDYANKLSRELHSRFGLKTMVADFADYDWDNFGDITEDILVFFIVATYGEGEPTDNADEFHTWLTEEADTLSTLKYTVFGLGNSTYEFFNAIGRKFDRLLSEKGGDRFAEYAEGDDGTGTLDEDFMAWKDNVFDALKNDLNFEEKELKYEPNVKLTERDDLSAADSQVSLGEPNKKYINSEGIDLTKGPFDHTHPYLARITETRELFSSKDRHCIHVEFDISESNLKYTTGDHLAIWPSNSDENIKQFAKCFGLEDKLDTVIELKALDSTYTIPFPTPITYGAVIRHHLEISGPVSRQFFLSIAGFAPDEETKKAFTRLGGDKQEFAAKVTRRKFNIADALLYSSNNAPWSDVPFEFLIENVPHLTPRYYSISSSSLSEKQLINVTAVVEAEEEADGRPVTGVVTNLLKNVEIVQNKTGEKPLVHYDLSGPRGKFNKFKLPVHVRRSNFKLPKNSTTPVILIGPGTGVAPLRGFVRERVQQVKNGVNVGKTLLFYGCRNSNEDFLYKQEWAEYASVLGENFEMFNAFSRQDPSKKVYVQDKILENSQLVHELLTEGAIIYVCGDASRMARDVQTTISKIVAKSREISEDKAAELVKSWKVQNRYQEDVW
In the case of B4, in the data set with cytochrome c [4], the “specific activity in reduction of cytochrome c” value was 198 U/mg.

Source of the values: patent publication US20030119145A1.
